Experimental data reported in the Human Domainome abundance scans (Beltran et al. 2025).

B1: Double-stranded RNA-binding protein Staufen homolog 1, residues 183 to 249; numbered along this chain, O95793 (parent)
chain: KSEISQVFEIALKRNLPVNFEVARESGPPHMKNFVTKVSVGEFVGEGEGKSKKISKKNAAIAVLEEL
B2: Far upstream element-binding protein 2, residues 142 to 214; numbered along this chain, Q92945 (parent)
chain: RTSMTEEYRVPDGMVGLIIGRGGEQINKIQQDSGCKVQISPDSGGLPERSVSLTGAPESVQKAKMMLDDIVSR

Variants of: B1
Assay: abundance fitness (aPCA) (normalised: wild type 0, dead -1); higher = more abundant; growth selection in yeast, the domain comes from the species named
Conditions: Homo sapiens

Abundance fitness: each site, then its substitutions
L16: P -0.663
V7: K -0.586
P29: A -0.005
F34: G -0.554
P17: Q -0.037
E48: N -0.045
S39: C -0.064
A23: I 0.011
E3: V -0.022
S5: P -0.528

Variants of: B2
Assay: as above
Conditions: Homo sapiens

Abundance fitness: each site, then its substitutions
S72: F -0.176, L -0.103, Y -0.079, I -0.086, N 0.026, G 0.118, W -0.191, K -0.048, M -0.024, D -0.032, V -0.085, A 0.016, H 0.019, T -0.042, P -0.282, R 0.052, C -0.116, E 0.007
K62: F -0.625, W -0.541, A -0.173, Q -0.048, C -0.288, E -0.286, L -0.169, H -0.231, Y -0.278, I -0.126, D -0.663, G -0.51, N -0.449, S -0.194, T -0.204, M -0.068, V -0.127
Q61: W -0.176, I -0.064, P -0.618, S -0.06, D -0.168, L -0.109, T -0.018, F -0.106, A 0.015, K 0.045, H -0.196, V -0.102, M -0.051, E 0.01, G -0.053, R 0.013, N 0.016, C -0.164
D69: N -0.094, L -0.143, F -0.284, M -0.13, Y -0.27, P -0.589, S -0.122, T -0.103, I -0.262, C -0.133, G -0.057, Q -0.097, V -0.181, E -0.002, A -0.019, K -0.043, W -0.321, H -0.165
K64: W -0.662, Y -0.926, D -0.567, S -0.553, E -0.653, T -0.445, R -0.016, N -0.703, G -0.757, A -0.558, I -0.275, P -0.687, Q -0.422, M -0.457, V -0.465, H -0.442, C -0.554
T54: W -0.393, S -0.059, V -0.058, Y 0.028
E58: C -0.305, S -0.102, V -0.209, P -0.305, T -0.174, H -0.071, W -0.335, F -0.405, G -0.124, R -0.198, M -0.125, N -0.275, A -0.088, D -0.035, K -0.065, Q -0.122, Y -0.203
P57: S -0.245, C -0.432, M -0.225, E -0.259, L -0.316, Y -0.402, F -0.357, A -0.101, K -0.185, V -0.192, D -0.609, W -0.24, R -0.141, I -0.289, T -0.325, G -0.434, H -0.213
R73: H -0.099, I 0.027, C 0.108, V -0.074, E -0.013, W -0.201, L -0.004, T 0.124, D 0.021, S 0.055, F -0.162, G 0.177, A 0.034, K 0.016
G55: P -0.937, C -0.818, T -0.732, W -1.83, F -1.41, R -0.965, K -0.681, Y -0.878, Q -0.875, M -1.18, V -1.17, D -0.83, N -0.922, I -1.5, E -0.927, L -1.18, H -0.887, A -0.882
A56: G -0.114, N -0.272, S -0.008, I -0.126, V -0.099, R 0.012, T 0.113, Y -0.091, D -0.025, K -0.153, Q -0.1, F -0.315, C 0.088, E -0.003, H 0.026, M -0.154, L -0.1, W -0.281
V71: Y -0.22, A -0.142, P -0.553, M -0.037, K -0.174, R -0.224, C -0.052, N -0.461, W -0.211, F -0.157, L 0.001, G -0.294, Q -0.296, T -0.032, D -0.458, E -0.485, I -0.057
I70: R -0.568, G -0.497, P -0.555, V -0.059, W -0.319, C -0.141, F -0.235, E -0.416, S -0.504, Y -0.153, L 0.051, A -0.295, T -0.344, D -0.574, K -0.395
M65: C 0.011, Q 0.131, F -0.136, A -0.008, S 0.025, K 0.067, V 0.008, R -0.023, I -0.025, W -0.211, N 0.017, H -0.066, D 0.02
L67: Q -0.64, Y -0.84, K -0.582, S -0.553, V -0.327, G -0.602, F -0.41, P -0.652, N -0.601, A -0.5, I 0.041, R -0.778, D -0.462, T -0.562, W -1.06, H -0.564, M -0.055
S59: F -0.528, A 0.008, D 0.003, W -0.968, Y -0.727, H -0.081, I -0.848, V -0.326, K -0.216, N -0.062, P -0.769, R -0.373, M -0.206, G -0.149, L -0.619, Q -0.037, C -0.063
A63: H -0.528, N -0.661, W -1.55, G -0.447, M -1.24, V -0.748, C -0.222, S -0.782, R -0.865, Y -0.811, T -0.69, L -1.46, P -0.648, D -0.666, Q -0.654
V60: E -0.773, S -0.741, F -0.82, G -0.745, W -1.26, Y -0.763, K -0.377, H -0.727, Q -0.586, N -0.636, R -0.016, M -0.265, A -0.689, D -0.789, C -0.355, L -0.191, I 0.119
D68: S -0.138, H -0.241, Q -0.116, W -0.62, P -0.882, L -0.564, A -0.188, E -0.06, F -0.469, C -0.372, I -0.494, G -0.144, N -0.007, K -0.098, M -0.337, V -0.456, R -0.126, T -0.278
M66: E -0.514, C -0.427, G -0.652, K -0.462, Y -0.379, W -0.473, Q -0.301, A -0.185, H -0.523, F -0.383, I -0.254, T -0.661, V -0.456, D -0.529, R -0.512, N -0.688, P -0.532, L -0.041, S -0.428
